# B1: DYYRRYFDLWGQGTTVTVS (SEQ. ID. No. 14) (peptide)
# peptide: DYYRRYFDLWGQGTTVTVS
# notes: also called Peptide # 11
# B2: YCQHSWEIPYTFGGGTKLEI (SEQ. ID. No. 24) (peptide)
# peptide: YCQHSWEIPYTFGGGTKLEI
# notes: also called Peptide # 21
# B3: VDKSSSTAYMQLNSLTSEDS (SEQ. ID. No. 34) (peptide)
# peptide: VDKSSSTAYMQLNSLTSEDS
# notes: also called Peptide # 31
# B4: AVYFCARGDYDYYRRYFDLW (SEQ. ID. No. 13) (peptide)
# peptide: AVYFCARGDYDYYRRYFDLW
# notes: also called Peptide # 10
# B5: KRADAAPAVSIFPPSSKLG (SEQ. ID. No. 26) (peptide)
# peptide: KRADAAPAVSIFPPSSKLG
# notes: also called Peptide # 23
# B6: LIKYASNLESGVPARFSGSG (SEQ. ID. No. 20) (peptide)
# peptide: LIKYASNLESGVPARFSGSG
# B7: PVEEEDTATYYCQHSWEIPY (SEQ. ID. No. 23) (peptide)
# peptide: PVEEEDTATYYCQHSWEIPY
# notes: also called Peptide # 20
# B8: TFGGGTKLEIKRADAAPAV (SEQ. ID. No. 25) (peptide)
# peptide: TFGGGTKLEIKRADAAPAV
# notes: also called Peptide # 22
# B9: GVPARFSGSGSGTDFTLNIH (SEQ. ID. No. 21) (peptide)
# peptide: GVPARFSGSGSGTDFTLNIH
# B10: AVYYCARGKGTGFAYWGQGT (SEQ. ID. No. 36) (peptide)
# peptide: AVYYCARGKGTGFAYWGQGT
# notes: also called Peptide # 33
# B11: VKLQQSGTEVVKPGASVKLS (SEQ. ID. No. 4) (peptide)
# peptide: VKLQQSGTEVVKPGASVKLS
# notes: also called Peptide # 1
# B12: NPYYGSTSYNQKFKGKATLT (SEQ. ID. No. 32) (peptide)
# peptide: NPYYGSTSYNQKFKGKATLT
# notes: also called Peptide # 29
# B13: FPGEGSTEYNEKFKGRATLS (SEQ. ID. No. 9) (peptide)
# peptide: FPGEGSTEYNEKFKGRATLS
# notes: also called Peptide # 6
# B14: IQLQQSGAELVKPGASVKIS (SEQ. ID. No. 27) (peptide)
# peptide: IQLQQSGAELVKPGASVKIS
# notes: also called Peptide # 24
# B15: EKFKGRATLSVDKSSSTAYM (SEQ. ID. No. 10) (peptide)
# peptide: EKFKGRATLSVDKSSSTAYM
# notes: also called Peptide # 7
# B16: GKSLEWIGNINPYYGSTSYN (SEQ. ID. No. 31) (peptide)
# peptide: GKSLEWIGNINPYYGSTSYN
# notes: also called Peptide # 28
# B17: TSSYSYMHWYQQKPGQPPKL (SEQ. ID. No. 18) (peptide)
# peptide: TSSYSYMHWYQQKPGQPPKL
# B18: QKFKGKATLTVDKSSSTAYM (SEQ. ID. No. 33) (peptide)
# peptide: QKFKGKATLTVDKSSSTAYM
# notes: also called Peptide # 30
# B19: SGTDFTLNIHPVEEEDTATY (SEQ. ID. No. 22) (peptide)
# peptide: SGTDFTLNIHPVEEEDTATY
# B20: LVTVSAAKTTPPSVYPLVPV (SEQ. ID. No. 38) (peptide)
# peptide: LVTVSAAKTTPPSVYPLVPV
# notes: also called Peptide # 35
# B21: QLNSLTSEDSAVYYCARGKG (SEQ. ID. No. 35) (peptide)
# peptide: QLNSLTSEDSAVYYCARGKG
# notes: also called Peptide # 32
# B22: ELTRLTSEDSAVYFCARGDY (SEQ. ID. No. 12) (peptide)
# peptide: ELTRLTSEDSAVYFCARGDY
# notes: also called Peptide # 9
# B23: YDIDWVRQTPEQGLEWIGWI (SEQ. ID. No. 7) (peptide)
# peptide: YDIDWVRQTPEQGLEWIGWI
# notes: also called Peptide # 4
# B24: CKASGYIFTSYDIDWVRQTP (SEQ. ID. No. 6) (peptide)
# peptide: CKASGYIFTSYDIDWVRQTP
# notes: also called Peptide # 3
# Target: T1, Full length recombinant HBcAg (rHBcAg) encompassing residues 1-183 (hepatitis B virus, UniProt P03146 1-183)
# T1 construct: range 1-183; also called hepatitis B virus core antigen
# Assay: EIA, support-bound peptide, HBcAg 0.2 ug/well
# T1 sequence (P03146 whole entry, the tested form may be a part): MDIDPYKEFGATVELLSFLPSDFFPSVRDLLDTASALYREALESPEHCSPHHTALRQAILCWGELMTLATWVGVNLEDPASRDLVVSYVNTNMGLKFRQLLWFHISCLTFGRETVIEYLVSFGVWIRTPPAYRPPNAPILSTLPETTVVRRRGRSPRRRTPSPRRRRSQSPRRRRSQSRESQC
row,Binder,OD at 405 nm
1,B1,0.133 OD
2,B2,0.173 OD
3,B3,0.114 OD
4,B4,0.304 OD
5,B5,0.162 OD
6,B6,0.112 OD
7,B7,0.207 OD
8,B8,0.084 OD
9,B9,0.141 OD
10,B10,0.227 OD
11,B11,0.124 OD
12,B12,0.213 OD
13,B13,0.121 OD
14,B14,0.123 OD
15,B15,0.194 OD
16,B16,0.114 OD
17,B17,0.574 OD
18,B18,0.207 OD
19,B19,0.205 OD

# Target: T1, Full length recombinant HBcAg (rHBcAg) …
# Assay: EIA, support-bound peptide, HBcAg 2 ug/well
row,Binder,OD at 405 nm
1,B1,0.356 OD
2,B2,0.498 OD
3,B3,0.338 OD
4,B4,0.981 OD
5,B5,0.465 OD
6,B6,0.357 OD
7,B7,0.625 OD
8,B8,0.273 OD
9,B9,0.409 OD
10,B10,1.2 OD
11,B11,0.323 OD
12,B12,0.783 OD
13,B13,0.325 OD
14,B14,0.369 OD
15,B15,0.883 OD
16,B16,0.289 OD
17,B17,1.44 OD
18,B18,1.11 OD
19,B19,0.649 OD

# Target: T2, non-structural 3 protein (NS3) of the hepatitis C virus (HCV) (hepatitis C virus)
# T2 construct: Control antigen; also called HCV NS3
# Assay: EIA, support-bound peptide, HCV NS3 control
row,Binder,OD at 405 nm
1,B1,0.022 OD
2,B20,0.032 OD
3,B2,0.052 OD
4,B3,0.106 OD
5,B4,0.038 OD
6,B5,0.021 OD
7,B6,0.02 OD
8,B7,0.124 OD
9,B21,0.035 OD
10,B8,0.024 OD
11,B22,0.073 OD
12,B9,0.027 OD
13,B10,0.035 OD
14,B11,0.021 OD
15,B12,0.021 OD
16,B13,0.109 OD
17,B14,0.021 OD
18,B15,0.035 OD
19,B23,0.089 OD
20,B16,0.028 OD
21,B17,0.028 OD
22,B18,0.035 OD
23,B24,0.032 OD
24,B19,0.206 OD

# Reference: US20020058247A1 (TRIPEP, published 2002)
